What was measured:
[1] = target: H2BS6/H3S10ADPr4 nucleosome (UniProt P68431 22-136; P62805 1-103, H3A21C, tetra-ADP-ribose on S6 | tetra-ADP-ribose on S10); assay: cell-based or functional assay
[2] = target: T1, PARP1 SerADPr_(long) (UniProt P09874 1-1014, long serine-linked ADP-ribose chains; a small population of aspartate- and/or glutamate-linked ADPr; sites not told); assay: co-IP; purified components: 100 nM FLAG-ALC1, 50 nM unmodified or H3S10ADPr3 nucleosomes, 100 nM PARP1 (unmodified, SerADPr long or short); 100 mM KCl, 25 mM HEPES pH 7.9, 2 mM MgCl2, 5% glycerol, 0.1% NP-40, 1 mM DTT; anti-FLAG M2 magnetic resin; western blot; conditions: both partners purified
T1 construct: PARP1, full-length construct, as m15; also called serine-auto-ADP-ribosylated PARP1 with long chains; automodified PARP1
T1 sequence (P09874 whole entry): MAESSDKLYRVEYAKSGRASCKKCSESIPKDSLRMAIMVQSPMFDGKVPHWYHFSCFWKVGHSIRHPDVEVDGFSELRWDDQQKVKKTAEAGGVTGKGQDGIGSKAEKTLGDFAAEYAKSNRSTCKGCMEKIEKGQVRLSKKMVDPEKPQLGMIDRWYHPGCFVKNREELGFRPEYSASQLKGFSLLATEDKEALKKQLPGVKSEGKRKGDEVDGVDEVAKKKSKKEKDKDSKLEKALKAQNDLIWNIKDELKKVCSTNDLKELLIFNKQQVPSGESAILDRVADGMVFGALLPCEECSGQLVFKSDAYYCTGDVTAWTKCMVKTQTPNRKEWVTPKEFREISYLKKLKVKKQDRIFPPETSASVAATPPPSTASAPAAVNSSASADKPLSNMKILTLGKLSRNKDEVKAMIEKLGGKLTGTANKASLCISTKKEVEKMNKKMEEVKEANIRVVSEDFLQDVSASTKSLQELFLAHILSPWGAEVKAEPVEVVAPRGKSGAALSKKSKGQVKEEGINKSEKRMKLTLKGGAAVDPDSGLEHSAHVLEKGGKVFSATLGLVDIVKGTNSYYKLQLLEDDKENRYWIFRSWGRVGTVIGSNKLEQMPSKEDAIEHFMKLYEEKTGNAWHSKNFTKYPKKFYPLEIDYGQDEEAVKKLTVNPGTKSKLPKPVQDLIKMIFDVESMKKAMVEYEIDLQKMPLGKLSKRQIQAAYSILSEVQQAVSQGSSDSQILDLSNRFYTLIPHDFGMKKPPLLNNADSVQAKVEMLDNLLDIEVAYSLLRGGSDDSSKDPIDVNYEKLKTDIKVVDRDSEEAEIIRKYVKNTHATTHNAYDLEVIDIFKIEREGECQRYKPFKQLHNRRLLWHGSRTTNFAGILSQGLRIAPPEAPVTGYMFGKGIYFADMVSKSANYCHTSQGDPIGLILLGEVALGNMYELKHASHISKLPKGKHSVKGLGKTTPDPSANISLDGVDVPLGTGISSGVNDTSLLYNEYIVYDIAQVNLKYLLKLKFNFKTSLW

[3] = target: T2, PARP1 SerADPr_(short) (UniProt P09874 1-1014, relatively short serine-linked ADP-ribose chains; sites not told); assay: as above; conditions: both partners purified
T2 construct: PARP1, full-length construct, as m15; also called serine-auto-ADP-ribosylated PARP1 with relatively short chains; automodified PARP1
T2 sequence (P09874 whole entry): as above

B1: ALC1 (full-length, 6xHis-1xFLAG-ALC1) (enzyme, UniProt Q86WJ1 1-897, looked up)
chain: MERAGATSRGGQAPGFLLRLHTEGRAEAARVQEQDLRQWGLTGIHLRSYQLEGVNWLAQRFHCQNGCILGDEMGLGKTCQTIALFIYLAGRLNDEGPFLILCPLSVLSNWKEEMQRFAPGLSCVTYAGDKEERACLQQDLKQESRFHVLLTTYEICLKDASFLKSFPWSVLVVDEAHRLKNQSSLLHKTLSEFSVVFSLLLTGTPIQNSLQELYSLLSFVEPDLFSKEEVGDFIQRYQDIEKESESASELHKLLQPFLLRRVKAEVATELPKKTEVVIYHGMSALQKKYYKAILMKDLDAFENETAKKVKLQNILSQLRKCVDHPYLFDGVEPEPFEVGDHLTEASGKLHLLDKLLAFLYSGGHRVLLFSQMTQMLDILQDYMDYRGYSYERVDGSVRGEERHLAIKNFGQQPIFVFLLSTRAGGVGMNLTAADTVIFVDSDFNPQNDLQAAARAHRIGQNKSVKVIRLIGRDTVEEIVYRKAASKLQLTNMIIEGGHFTLGAQKPAADADLQLSEILKFGLDKLLASEGSTMDEIDLESILGETKDGQWVSDALPAAEGGSRDQEEGKNHMYLFEGKDYSKEPSKEDRKSFEQLVNLQKTLLEKASQEGRSLRNKGSVLIPGLVEGSTKRKRVLSPEELEDRQKKRQEAAAKRRRLIEEKKRQKEEAEHKKKMAWWESNNYQSFCLPSEESEPEDLENGEESSAELDYQDPDATSLKYVSGDVTHPQAGAEDALIVHCVDDSGHWGRGGLFTALEKRSAEPRKIYELAGKMKDLSLGGVLLFPVDDKESRNKGQDLLALIVAQHRDRSNVLSGIKMAALEEGLKKIFLAAKKKKASVHLPRIGHATKGFNWYGTERLIRKHLAARGIPTYIYYFPRSKSAVLHSQSSSSSSRQLVP
notes: ALC1 (CHD1L), full-length gene synthesized by Twist Biosciences; also called FLAG-tagged ALC1; recombinant, full-length ALC1; source: Sf9 (baculovirus), purified (anti-FLAG M2 magnetic resin, FLAG peptide elution); not shown: FLAG, N-terminal, kept
- ALC1 remodeling rate constant relative to the unmodified nucleosome (REA assay) [1]: ~370 fold
- binding result [2]: binds
- binding result [3]: binds

From article PMC8683085, “Serine ADP-ribosylation marks nucleosomes for ALC1-dependent chromatin remodeling” (eLife, 2021)
